Measured values taken from US20080253996A1, “Use of Sdf-1 for the Treatment and/or Prevention of Neurological Diseases” (LABORATORIES SERONO SA, priority 2005, published 2008).

Tests used:
sciatic nerve crush mice = test: Neuropathy induced by sciatic nerve crush, electrophysiological recording (CMAP); format: in vivo, mouse
Description: […] 8 week-old females C57bl/6 RJ mice (Elevage Janvier, Le Genest-St-Isle, France) were used. They were divided into 6 groups (n=6): • (a) nerve crush/Vehicle (Saline/0.02% BSA); • (b) nerve crush/SDF-1α (3 μg/kg); • (c) nerve crush/SDF-1α (10 μg/kg); • (d) nerve crush/SDF-1α (30 μg/kg); • (e) nerve crush/SDF-1α (100 μg/kg); • (f) nerve crush/IL-6 (30 μg/kg).
The animals were anaesthetized by inhalation of 3% Isoflurane (Baxter). The right sciatic nerve was surgically exposed at mid thigh level and crushed at 5 mm proximal to the trifurcation of the sciatic nerve. The nerve was crushed twice for 30s with a haemostatic forceps (width 1.5 mm; Koenig; Strasbourg; France) with a 90-degree rotation between each crush.
Electromyographical (EMG) testing was performed once before the surgery day and each week during 3 weeks following the operation.
The day of nerve crush surgery was considered as dpl 0 (dpl=day post lesion). No test was performed during the 4 days following the crush.
From the day of nerve injury to the end of the study, SDF-1α, IL-6 or Vehicle were administered daily by subcutaneous injections (s.c.) route, 5 days per week.
Electrophysiological recordings were performed using a Neuromatic 2000M electromyograph (EMG) (Dantec, Les Ulis, France). Mice were anaesthetized by inhalation of 3% Isofluran® (Baxter). The normal body temperature was maintained using a heated operating table (Minerve, Esternay, France).
Compound muscle action potential (CMAP) was measured in the gastrocnemius muscle after a single 0.2 ms stimulation of the sciatic nerve at a supramaximal intensity (12.8 mA). The amplitude (mV) and the latency (ms) of the action potential were measured on the operated leg. The measures was also registered on the contralateral (uncrushed) leg of Vehicle treated animals (Baseline). The amplitude is indicative of the number of active motor units, while the distal latency indirectly reflects motor nerve conduction and neuromuscular transmission velocities, which depends in part on the degree of myelination.
Global analysis of the data was performed using one-way ANOVA. Dunnett's test was used further, and data were compared to the “vehicle” control. The level of significance was set at a: p<0.001; b or **: p<0.01; c or *: p<0.05; d: p<0.1. The results were expressed as mean ±standard error of the mean (s.e.m.).
The sciatic nerve crush model described in Example 4 above was carried out to test SDF-1α variant as defined in SEQ ID NO: 4 and the mice were divided into the following 2 groups (n=6):
The SDF-1α variant used in this example and encoded by SEQ ID NO: 4 was expressed with an additional N terminal Methionine. The CMAP duration (time needed for a depolarization and a repolarization session) was also recorded.
The sciatic nerve crush model described in Example 4 above was carried out to test Met-SDF-1α (as defined in SEQ ID NO: 7) and the mice were divided into the following 2 groups (n=6):
(b) nerve crush/Met-SDF-1α variant at 100, 30, and 10 μg/kg s.c.

[1] = tested on: primary mixed cortical cultures stimulated with LPS; test: Cytokine release (TNF-α, IL-6) from LPS stimulated primary mixed cortical cultures; format: cell-based, mouse; settings: for levels of IL-6 secretion / levels of TNF-α secretion: pre-incubation 3 h (SDF proteins 0.001, 0.1, 10 ng/ml; IL-10 10 ng/ml; dexamethasone 25 pM), then LPS 5 ng/ml 48 h, ELISA, compared to untreated cells
Description: Culturing of primary cells was performed as described (Lubetzki et al., 1993) using brain tissue from embryos isolated from NMRI mice at 16 days post-coitum. Cerebral hemispheres were dissected from embryo brains, dissociated via trypsin digestion and the single cell suspension was seeded at 5×10^4 cells in 50 μl myelination medium per well onto BioCoat® poly-L-lysine coated 96-well plates (356516, Becton Dickinson). The myelination medium consisted of Bottenstein-Sato medium (Bottenstein and Sato, 1979; Sadir et al., 2001), supplemented with 1% FCS, 1% penicillin-streptomycin solution (Seromed) and recombinant platelet-derived growth factor AA (PDGF-AA, R&D Systems) at 10 ng/mL.
For testing the effects of SDF-1α and SDF-1α variant (as defined in SEQ ID NO: 4) on LPS stimulated cultures, cells were allowed to grow for two weeks. At day 14 cells were pre-incubated with increasing concentrations (0.001, 0.1 and 10 ng/ml) of the corresponding proteins into 25 μl of medium for three hours at 37° C. and 10% CO2. LPS was then supplemented to the cells at the concentration of 5 ng/ml into 25 μl of medium to obtain a final volume of 100 μl and incubated for 48 hours. Supernatants were collected at day 16 and the levels of TNF-α and IL-6 (the major cytokines released by activated microglia) were measured via specific ELISAs purchased from R&D systems (DuoSet mouse TNF-α ELISA DY410, mouse IL-6 ELISA DY406).
Global analysis of the data was performed using one-way ANOVA. Dunnett's test was used further, and data were compared to the “untreated cells”. The level of significance was set at a: p<0.001; b or **: p<0.01; c or *: p<0.05; d: p<0.1. The results were expressed as mean ±standard error of the mean (s.e.m.).

[2] = tested on: leukocytes recruited in the peritoneal cavity; test: In vivo model of peritoneal cell recruitment; design: species or system mouse; settings: 4 μg i.p. in Balb/C mice, 4 hours post injection
Description: 8-12 week old, female Balb/C mice (Janvier, France) were injected intra peritoneally (i.p.) with 200 μl NaCl (0.9%, LPS free) or chemokine 4 μg (WT SDF-1α or SDF-1α variant according to SEQ ID NO:4 diluted in 200 μl NaCl (0.9%, LPS free). […] of WT or mutant SDF-1α, mice were sacrificed by CO2 asphyxiation, the peritoneal cavity was washed with 3×5 ml ice cold PBS and the total lavage was pooled for individual mice. Total cells collected were counted by haemocytometer (Neubauer, Germany).

In the case of “Met-SDF-1α: Human mature isoform SDF-1α having an additional N-terminal Methionine, SEQ ID NO: 7”, the “CMAP latency vs vehicle treated mice” value (sciatic nerve crush mice; 100, 30, and 10 μg/kg s.c., day 7 and day 14 after crush) is reported as “significantly reduced”.

B1: SDF-1α variant: Triple mutant of SDF-1α (Lys24Ala, His25Ala, Lys27Ala), SEQ ID NO: 4, reduced GAG binding activity (protein)
chain: KPVSLSYRCPCRFFESHVARANVAALAILNTPNCALQIVARLKNNNRQVCIDPKLKWIQEYLEKALNK
modifications: Human
In the case of B1, the “levels of IL-6 secretion” value [1] is reported as “significantly decreased”, the “levels of TNF-α secretion” value [1] is reported as “significantly decreased” and the “best concentration for decrease of TNF-α and IL-6 secretion” value ([1]; tested 0.001, 0.1 and 10 ng/ml, LPS 5 ng/ml 48 h) is reported as 10 ng/mL. The “CMAP duration vs vehicle treated mice” value (sciatic nerve crush mice; 30 μg/kg s.c., 7 dpl and 22 dpl) was “reduced”, the CMAP amplitude (sciatic nerve crush mice; 30 μg/kg s.c., 22 dpl) was “significant increase” and the “CMAP latency vs vehicle treated mice” value (sciatic nerve crush mice; 30 μg/kg s.c., 22 dpl) was “positive effect”. For the same molecule, the “CMAP latency vs vehicle treated mice” value (sciatic nerve crush mice; 30 μg/kg s.c., especially at 7 dpl) was “significantly reduced” and the “leukocyte recruitment in the peritoneal cavity” value [2] was “did not recruit leukocytes”.

B2: IL-10: control molecule shown to inhibit cytokine release from activated microglia (protein, UniProt P18893 19-178, looked up)
Interleukin-10: SRGQYSREDNNCTHFPVGQSHMLLELRTAFSQVKTFFQTKDQLDNILLTDSLMQDFKGYLGCQALSEMIQFYLVEVMPQAEKHGPEIKEHLNSLGEKLKTLRMRLRRCHRFLPCENKSKAVEQVKSDFNKLQDQGVYKAMNEFDIFINCIEAYMMIKMKS
With B2 the “levels of IL-6 secretion” value [1] was “down regulated” and the “levels of TNF-α secretion” value [1] was “down regulated”.
